Experimental data as given in patent US8703915B2, “Mutant proteins and methods for producing them” (Heptares Therapeutics Limited, priority 2009, dated 2014).
Residue numbers refer to the chain shown, from its start. In names and notes the source's numbering stands.

B1: M93A: 5HT2C receptor mutant, M93 to alanine (protein, UniProt P28335 33-458, looked up, variant M93A)
5-hydroxytryptamine receptor …: IVTDIFNTSDGGRFKFPDGVQNWPALSIVIIIIMTIGGNILVIMAVSMEKKLHNATNYFLASLAIADMLVGLLVMPLSLLAILYDYVWPLPRYLCPVWISLDVLFSTASIMHLCAISLDRYVAIRNPIEHSRFNSRTKAIMKIAIVWAISIGVSVPIPVIGLRDEEKVFVNNTTCVLNDPNFVLIGSFVAFFIPLTIMVITYCLTIYVLRRQALMLLHGHTEEPPGLSLDFLKCCKRNTAEEENSANPNQDQNARRRKKKERRPRGTMQAINNERKASKVLGIVFFVFLIMWCPFFITNILSVLCEKSCNQKLMEKLLNVFVWIGYVCSGINPLVYTLFNKIYRRAFSNYLRCNYKVEKKPPVRQIPRVAATALSGRELNVNIYRHTNEPVIEKASDNEPGIEMQVENLELPVNPSSVVSERISSV
B2: 1363: 5HT2C receptor mutant, residue 7.48 to alanine (protein, listed as Homo sapiens)
chain: MVNLRNAVHSFLVHLIGLLVWQCDISVSPVAAIVTDIFNTSDGGRFKFPDGVQNWPALSIVIIIIMTIGGNILVIMAVSMEKKLHNATNYFLMSLAIADMLVGLLVMPLSLLAILYDYVWPLPRYLCPVWISLDVLFSTASIMHLCAISLDRYVAIRNPIEHSRFNSRTKAIMKIAIVWAISIGVSVPIPVIGLRDEEKVFVNNTTCVLNDPNFVLIGSFVAFFIPLTIMVITYCLTIYVLRRQALMLLHGHTEEPPGLSLDFLKCCKRNTAEEENSANPNQDQNARRRKKKERRPRGTMQAINNERKASKVLGIVFFVFLIMWCPFFITNILSVLCEKSCNQKLMEKLLNVFVWIGYVCSGANPLVYTLFNKIYRRAFSNYLRCNYKVEKKPPVRQIPRVAATALSGRELNVNIYRHTNEPVIEKASDNEPGIEMQVENLELPVNPSSVVSERISSV
B3: L366: 5HT2C receptor mutant, residue 7.51 (L366, L in NPLVY) to alanine (protein, UniProt P28335 33-458, looked up, variant L366A)
5-hydroxytryptamine receptor …: B1 5-hydroxytryptamine receptor … with A61M, L334A
B4: 5HT2C: wild type (parent) human 5HT2C receptor (protein, listed as Homo sapiens)
chain: B2 chain with A363I
B5: M4: parent human M4 muscarinic receptor (protein, UniProt P08173 1-479, looked up)
Muscarinic acetylcholine …: MANFTPVNGSSGNQSVRLVTSSSHNRYETVEMVFIATVTGSLSLVTVVGNILVMLSIKVNRQLQTVNNYFLFSLACADLIIGAFSMNLYTVYIIKGYWPLGAVVCDLWLALDYVVSNASVMNLLIISFDRYFCVTKPLTYPARRTTKMAGLMIAAAWVLSFVLWAPAILFWQFVVGKRTVPDNQCFIQFLSNPAVTFGTAIAAFYLPVVIMTVLYIHISLASRSRVHKHRPEGPKEKKAKTLAFLKSPLMKQSVKKPPPGEAAREELRNGKLEEAPPPALPPPPRPVADKDTSNESSSGSATQNTKERPATELSTTEATTPAMPAPPLQPRALNPASRWSKIQIVTKQTGNECVTAIEIVPATPAGMRPAANVARKFASIARNQVRKKRQMAARERKVTRTIFAILLAFILTWTPYNVMVLVNTFCQSCIPDTVWSIGYWLCYVNSTINPACYALCNATFKKTFRHLLLCQYRNIGTAR

Columns and labels:
5HT2C receptor [1] = assay: Thermostability of 5HT2C receptor bound to agonist SCH23390; assay type: physicochemical, human; settings: for increase of Tm: agonist SCH23390 bound, versus parent 5HT2C; for Tm: bound to agonist SCH23390
Method: An alanine scan has been carried out on the 5HT2C receptor in the presence of the agonist SCH23390 in order to stabilise the agonist conformation. Similar to A2A, it appears that mutating L2.46 (L95 in 5HT2C) to alanine confers significant stability on this receptor increasing the Tm of the receptor by 5.4° C. (FIG. 7). It is notable that in addition to L95, mutating the nearby M93 (two residues away from L2.46) to alanine also confers stability to the agonist bound receptor, resulting in an increase of 2.9° C.
(§1) A2AR-(2-316) expression was carried out by using the pRG/III-hs-MBP E. coli expression vector and DH5α cells. Cells were grown at 37° C. in 2 L flasks containing 500 mL of 2×TY medium supplemented with Ampicillin (100 μg/mL) and glucose (0.2% w/v). At OD600≈0.7, IPTG and theophylline were added at final concentrations respectively of 0.5 mM and 100 μM, and the temperature was reduced to 20° C. After 22 to 24 hours, cells were harvested in aliquots of 14 mL, centrifuged for 30 min and stored at −20° C. Both 5HT2C and M4 receptors were transiently expressed in HEK293T cells using GeneJuice transfection reagent used according to the manufacturers guidelines.
(§2) 5HT2C receptor was solubilised from transiently transfected mammalian cells in 50 mM Hepes pH7.4, 100 mM KCl, 0.5% DDM (0.1% CHS/0.6% CHAPS was added to cells for SCH23390 agonist assay). Tm analysis was performed directly on the soluble lysate. The Tm was determined by incubating 108 μl of the lysate with [N^6-methyl-^3H]Mesulergine radioligand at a final concentration of 17 nM or 9 nM [^3H]SCH23390 for one hour at 4° C. The six ligand incubations are then incubated at six different temperatures from 25° C. to 55° C., for thirty minutes. Receptor bound and free radioligand were separated using a 96-well plate gel filtration assay.
(§3) 5HT2C receptor was solubilised from transiently transfected mammalian cells about 40 hours post transfection, in 50 mM Hepes pH7.4/100 mM KCl/0.5% DDM/(0.1% CHS/0.6% CHAPS was added to cells for SCH23390 agonist assay) and protease inhibitor. Cell lysates were left at 4° C. on a rotator and then cleared by centrifugation at 13,200 rpm for 20 minutes at 4° C. Thermostability analysis was performed directly on the soluble lysate. The Tm was determined by incubating 108 μl of the lysate with [N^6-methyl-^3H]Mesulergine radioligand at a final concentration of 17 nM or 9 nM [^3H]SCH23390 for one hour at 4° C. The six ligand incubations are then incubated at six different temperatures from 25° C. to 55° C., for thirty minutes. Receptor bound and free radioligand were separated using G25 Sephadex spin columns.

5HT2C receptor [2] = assay: Two point thermostability assay, SCH23390 agonist binding to 5HT2C alanine scan mutants; assay type: physicochemical, human
Method: An alanine scan has been carried out on the 5HT2C receptor in the presence of the agonist SCH23390 in order to stabilise the agonist conformation.
as §3

5HT2C receptor [3] = assay: Antagonist binding to 5HT2C NPxxY motif alanine mutants (Table 1); set-up: species or system human; Average / Average - BG: unit not given here; settings: for % of Wildtype binding / DPM1 / DPM2: antagonist Mesulergine binding; for DPM1: replicate 1; for DPM2: replicate 2; for Average - BG: average minus background; for Average: average of DPM1 and DPM2
Method: An alanine scan was carried out in a similar fashion on an adenosine A2A receptor along with the 5HT2C receptor in the presence of the antagonist Mesulergine. Both alanine scans were carried out in order to further stabilize the antagonist conformation. […] The motif in Adenosine A2A is NPFIY (SEQ ID NO: 364) and for the 5HT2C is NPLVY (SEQ ID NO: 363). Therefore mutations in this region of the receptor contain stabilising mutations specific to the agonist conformation and detrimentally effect antagonist binding.
as §3

5HT2C receptor [4] = assay: Thermostability of 5HT2C receptor bound to antagonist mesulergine; assay type: physicochemical, human; settings: bound to antagonist (mesulergine)
Method: as §1, §2

M4 muscarinic receptor = assay: Thermostability of M4 muscarinic receptor bound to antagonist NMS; assay type: physicochemical, human; settings: bound to antagonist NMS
Method: In order to stabilise the M4 muscarinic receptors in antagonist conformation, a systematic alanine-scan was performed to identify mutations that stabilise receptors bound to the muscarinic antagonist, NMS. […] However, L71A (three residues N-terminal of the L2.46) was identified as a stabilising mutation. This mutation increases the Tm of this receptor by about 2° C. (FIG. 8a).
as §1
Transiently transfected mammalian cells expressing M4 were harvested about 40 hours post transfection and the receptors were solubilised in 50 mM Tris pH 7.5/250 mM NaCl/1% DDM/EDTA free protease inhibitor mix for 1 hour rotating at 4° C. The solubilised lysate was then cleared by centrifugation at 13000 rpm for 15 minutes at 4° C. The solubilised receptors were then purified on Ni-NTA beads and eluted with 100 mM histidine. The eluted receptor was used in radioligand binding assay. Thermostability of M4 was measured using 25 μL of purified receptor mixed with 95 μL of 12 nM [^3H]-NMS (final concentration of 10 nM). The sample was incubated for 60 min at 4° C., then 30 min at the specified temperature and then 30 min at 4° C. Receptor bound and free radioligand were separated using a 96-well plate gel filtration assay.

Molecule	increase of Tm (5HT2C receptor [1]) [°C]	Tm (5HT2C receptor [1]) [°C]	thermostability (agonist binding at the destabilising temperature compared to wild type) (5HT2C receptor [2])	% of Wildtype binding (5HT2C receptor [3]) [%]	DPM1 (5HT2C receptor [3]) [DPM]	DPM2 (5HT2C receptor [3]) [DPM]	Average - BG (5HT2C receptor [3])	Average (5HT2C receptor [3])	Tm (5HT2C receptor [4]) [°C]	Tm (M4 muscarinic receptor) [°C]
B1	2.9	45.6								
B2			increased agonist binding compared to the wild type receptor							
B3	4		increased agonist binding compared to the wild type receptor	19.27	2515	1897	1774.5	2206		
B4		43.35		100	10202	9631	9208	9916.5	37.1	
B5										34.0
